Assay results taken from patent publication US20160319321.
Numbering of substitutions follows the chain as printed. Numbers in names are those of the source.

What was measured:
[1] = biological target: T1, Lys(Dnp)-EDEGDR-HAEGT-Lys(Abz)amide
T1 chain: KEDEGDRHAEGTK

[2] = biological target: T2, Lys(Dnp)-VDEGDR-HAEGT-Lys(Abz)amide
T2 chain: KVDEGDRHAEGTK

[3] = biological target: T3, Lys(Dnp)-DFGDR-EGTFT-Lys(Abz)amide
T3 chain: KDFGDREGTFTK

[4] = biological target: T4, DVKEGQPLYDDDDK-[Arg34]GLP-1(9-37)
T4 chain: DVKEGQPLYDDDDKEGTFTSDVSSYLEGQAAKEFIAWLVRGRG

[5] = biological target: T5, DVKPGQPLEDEGDR-[Arg34]GLP-1(9-37)
T5 chain: T4 chain with E4P, Y9E, D11E, D12G, K14R

[6] = biological target: T6, DVKPGEPLYDDDDK-[Arg34]GLP-1(9-37)
T6 chain: T4 chain with E4P, Q6E

[7] = biological target: T7, Lys(Dnp)-INDDRHAEGT-Lys(Abz)amide
T7 chain: XINDDRHAEGTX

B1: bovine Enterokinase light chain variant (C112A, L134K, I135K) (protein)
chain: IVGGSDSREGAWPWVVALYFDDQQVCGASLVSRDWLVSAAHCVYGRNMEPSKWKAVLGLHMASNLTSPQIETRLIDQIVINPHYNKRRKNNDIAMMHLEMKVNYTDYIQPIALPEENQVFPPGRICSIAGWGAKKYQGSTADVLQEADVPLLSNEKCQQQMPEYNITENMVCAGYEAGGVDSCQGDSGGPLMCQENNRWLLAGVTSFGYQCALPNRPGVYARVPRFTEWIQSFLH
Activity (%) [1]: 159%
Activity (%) [2]: 184%
Activity (%) [3]: 419%
Activity (%) [4]: 178%
Activity (%) [5]: 653%
Activity (%) [6]: 162%
Activity (%) [7]: 126%
